# From the RNAGym collection of RNA variant scans (doi:10.7554/elife.90254)
# B1: OR4K15 (parent)
# chain: GUUAACGGUCAUAGGCCAUGGAAACUAGGAGCACCAUUUCGCUGCCAGUGAAGAAAUGAACAAAGAAAAUCUGGGCCAGGCAGGCAUCAAAAGAAAUAGUCUUGCGCUCAACCAGAAAGUCUGUAAUCAUUUUAAGGGUA
# Variants of: B1
# Assay: self-cleavage, relative activity (ratio to wild type); higher = more cleavage; in vitro, sequencing; the parent is a self-cleaving ribozyme
row,Variant,self-cleavage
1,GUUAACGGUCAUAGGCCAUGGAAACUAGGAGCACCAUCUCGCUGCCAGUGAAGAAAUGAACAAAGAAAAUCUGGGCCAGGCAGGCAUCAAAAGAAAUAGUCUUGCGCUCAACCAGAAAGUCUGUAAUCAUUUUGAGGGUA [U38C A134G],1.74
2,GUUAACGGUCAUAGGCCAUGGAAACUAGGAGCACCAUCUCGCUGCCAGUGAAGAAAUGAACAAAGAAAAUCUGGGCCAGGCAGGCAUCAAAAGAAAUAGUCUUGCGCUCAACCUGAAAGUCUGUAAUCAUUUUAAGGGUA [U38C A114U],0.15
3,GUUAACGGUCAUAGGCCAUGGAAACUAGGAGCACCAUCUCGCUGCCAGUGAAGAAAUGAACAAAGAAAACCUGGGCCAGGCAGGCAUCAAAAGAAAUAGUCUUGCGCUCAACCAGAAAGUCUGUAAUCAUUUUAAGGGUA [U38C U70C],1.05
4,GUUAACGGUCAUAGGCCAUGGAAACUAGGAGCACCAUCCCGCUGCCAGUGAAGAAAUGAACAAAGAAAAUCUGGGCCAGGCAGGCAUCAAAAGAAAUAGUCUUGCGCUCAACCAGAAAGUCUGUAAUCAUUUUAAGGGUA [U38C U39C],1.64
5,GUUAACGGUCAUAGGCCAUGGAAACUAGGAGCACCAUCUCUCUGCCAGUGAAGAAAUGAACAAAGAAAAUCUGGGCCAGGCAGGCAUCAAAAGAAAUAGUCUUGCGCUCAACCAGAAAGUCUGUAAUCAUUUUAAGGGUA [U38C G41U],1.46
6,GUUAACGGUCAUAGGCCAUGGAAACUAGGAGCACCAUCUCGCUGCCAGUGAAGAAAUGAACAAAGAAAAUCUGGGCCAGGCAGGCAUCAAAAGAAAUAGUCUUGCGCUCAACCAGAAUGUCUGUAAUCAUUUUAAGGGUA [U38C A118U],0.98
7,GUUAACGGUCAUAGGCCAUGGAAACUAGGAGCACCAUCUCGCUGCCAGUGAAGAAAUGAACAAAGAAAAUCUGGGCCAGGCAGGCAUCAAAAGAAAUAGUCUUGUGCUCAACCAGAAAGUCUGUAAUCAUUUUAAGGGUA [U38C C105U],0.19
8,GUUAACGGUCAUAGGCCAUGGAAACUAGGAGCACCAUCUCGCUGCCAGUGAAGAAAUGAACAAAGAAAAUCUGGGCCAGGCGGGCAUCAAAAGAAAUAGUCUUGCGCUCAACCAGAAAGUCUGUAAUCAUUUUAAGGGUA [U38C A82G],0.57
9,GUUAACGGUCAUAGGCCAUGGAAACUAGGAGCACCAUCUCGCUGCCAGUGAAGAAAUGAACAAAGAAAAUCUGGGCCAGGCAGGCAUCAAAAGAAAUAGUCUUGCGCUCAACCAGUAAGUCUGUAAUCAUUUUAAGGGUA [U38C A116U],0.09
10,GUUAACGGUCAUAGGCCAUGGAAACUAGGAGCACCAUCUCGCUGCCAGUGAAGAAAUGAACAAAGAAAAUCUGGGCCAGGCAGGCAUCAAAAGAAAUAGUCUUGCGCUCAACCAGGAAGUCUGUAAUCAUUUUAAGGGUA [U38C A116G],1.09
11,GUUAACGGUCAUAGGCCAUGGAAACUAGGAGCACCAUCUCGCUGCCAGUGAAGAAAUGAACAAAGAAAAUCUGGGCCAGGCAGGCAUUAAAAGAAAUAGUCUUGCGCUCAACCAGAAAGUCUGUAAUCAUUUUAAGGGUA [U38C C88U],2.51
12,GUUAACGGUCAUAGGCCAUGGAAACUAGGAGCACCAUCUCGCUGCCAGUGAAGAAAUGAACAAAGAAAAUCUGGGCCAGGCAGGCAUCAAAAGAAGUAGUCUUGCGCUCAACCAGAAAGUCUGUAAUCAUUUUAAGGGUA [U38C A96G],1.51
13,GUUAACGGUCAUAGGCCAUGGAAACUAGGAGCACCAUCUCGCUGCCAGUGAAGAAAUGAACAAAGAAAAUCUGGGCCAGGCAGGCAUCAAAAGAAAUAGCCUUGCGCUCAACCAGAAAGUCUGUAAUCAUUUUAAGGGUA [U38C U100C],2.28
14,GUUAACGGUCAUAGGCCAUGGAAACUAGGAGCACCAUCUCGCUGCCAGUGAAGAAAUGAACAAAGAAAAUCUGGGCCAGGCAGGCAUCAAAAGAAAUAGUCUUGCGCUUAACCAGAAAGUCUGUAAUCAUUUUAAGGGUA [U38C C109U],0.26
15,GUUAACGGUCAUAGGCCAUGGAAACUAGGAGCACCAUCUCGCUGCCAGUGAAGAAAUGAACAAAGAAAAUCUGGGCCAGGCAGGCAUCAAAAGAAAUAGUCUUGCGCUCAACCAGAAAGUCUGAAAUCAUUUUAAGGGUA [U38C U124A],0.81
16,GUUAACGGUCAUAGGCCAUGGAAACUAGGAGCACCAUCUCGCUGCCAGUGAAGAAAUGAACAAAGAAAAUCUGGGCCAAGCAGGCAUCAAAAGAAAUAGUCUUGCGCUCAACCAGAAAGUCUGUAAUCAUUUUAAGGGUA [U38C G79A],0.22
17,GUUAACGGUCAUAGGCCAUGGAAACUAGGAGCACCAUCUCGCUGCCAGUGAAGAAAUGAACAAAGAAAAUCUGGGCCAGGCAGGCAUCAAAAGAAAUAGUCUUGCGCACAACCAGAAAGUCUGUAAUCAUUUUAAGGGUA [U38C U108A],0.03
18,GUUAACGGUCAUAGGCCAUGGAAACUAGGAGCACCAUCUCGCUGCCAGUGAAGAAAUGAACAAAGAAAAUCUGGGCCAGGCAGGCAUCAAAAGAAAUAGUCUUGCGCUCAACCAGAAAGCCUGUAAUCAUUUUAAGGGUA [U38C U120C],1.06
19,GUUAACGGUCAUAGGCCAUGGAAACUAGGAGCACCAUCUCGCUGCCAGUGAAGAAAUGAACAAAGAAAAUCUGGGCCAGGCAGGCAUCAAAAGAAAUAGUCUUGCGCUCAACCAGAAAGUCUGUAUUCAUUUUAAGGGUA [U38C A126U],1.12
20,GUUAACGGUCAUAGGCCAUGGAAACUAGGAGCACCAUCUCGCUGCCAGUGAAGAAAUGAACAAAGAAAAUCUGGGCCAGGCAGACAUCAAAAGAAAUAGUCUUGCGCUCAACCAGAAAGUCUGUAAUCAUUUUAAGGGUA [U38C G84A],2.05
21,GUUAACGGUCAUAGGCCAUGGAAACUAGGAGCACCAUCUCGCUGCCAGUGAAGAAAUGAACAAAGAAAAUCUGGGCCAGGCAGGCAUCAAAAGAAAUAGUCUUGCGCUCAACCAGAAAGUCUGUAAUCAUUUUAAGGGUG [U38C A140G],2.16

row,Variant,self-cleavage
1,GUUAACGGUCAUAGGCCAUGGAAACUAGGAGCACCAUCUCGCUGCCAGUGAAGAAAUGAACAAAGAAAAUCUGGGCCAGGCAAGCAUCAAAAGAAAUAGUCUUGCGCUCAACCAGAAAGUCUGUAAUCAUUUUAAGGGUA [U38C G83A],2.15
2,GUUAACGGUCAUAGGCCAUGGAAACUAGGAGCACCAUCUCGCUGCCAGUGAAGAAAUGAACAAAGAAAAUCUGGGCCAGGCAUGCAUCAAAAGAAAUAGUCUUGCGCUCAACCAGAAAGUCUGUAAUCAUUUUAAGGGUA [U38C G83U],0.43
3,GUUAACGGUCAUAGGCCAUGGAAACUAGGAGCACCAUCUCGCUGCCAGUGAAGAAAUGAACAAAGAAAAUCUGGGCCAGGCAGGCAUCAAAAGAAAUAGUCUUGCGCUCUACCAGAAAGUCUGUAAUCAUUUUAAGGGUA [U38C A110U],1.46
4,GUUAACGGUCAUAGGCCAUGGAAACUAGGAGCACCAUCUCGCUGCCAGUGAAGAAAUGAACAAAGAAAAUCUGGGCCAGGCAGGCAUCAAAAGAAAUAGUCUAGCGCUCAACCAGAAAGUCUGUAAUCAUUUUAAGGGUA [U38C U103A],0.64
5,GUUAACGGUCAUAGGCCAUGGAAACUAGGAGCACCAUCUCGCUGCCAGUGAAGAAAUGAACAAAGAAAAUCUGGGCCAGGCAGGCAUCAAAAGAAAUAGUCUCGCGCUCAACCAGAAAGUCUGUAAUCAUUUUAAGGGUA [U38C U103C],1.18
6,GUUAACGGUCAUAGGCCAUGGAAACUAGGAGCACCAUCUCGCUGCCAGUGAAGAAAUGAACAAAGAAAAUCUGGGCCAGGCAGGCAUCAAAAGAAAUAGUCUUGCGCUCAACCAGAGAGUCUGUAAUCAUUUUAAGGGUA [U38C A117G],1.18
7,GUUAACGGUCAUAGGCCAUGGAAACUAGGAGCACCAUCUCGCUGCCAGUGAAGAAAUGAACAAAGAAAAUCUGGGCCAGGCAGGCAUCAAAAGAAAUAGUCUUGCGCUCAACCAGAAAGUCUGUAAUCAUUUUAAGUGUA [U38C G137U],2.1
8,GUUAACGGUCAUAGGCCAUGGAAACUAGGAGCACCAUCUCGCUGCCAGUGAAGAAAUGAAUAAAGAAAAUCUGGGCCAGGCAGGCAUCAAAAGAAAUAGUCUUGCGCUCAACCAGAAAGUCUGUAAUCAUUUUAAGGGUA [U38C C61U],1.86
9,GUUAACGGUCAUAGGCCAUGGAAACUAGGAGCACCAUCUCGCUGCCAGUGAAGAAAUGAACAAAGAAAAUCUGGGCCAGGCAGGCAUCAAAAGAAAUAGUCUUGCGCUCAACCAGAAAGUCUGUAAUCAUUUUAGGGGUA [U38C A135G],1.9
10,GUUAACGGUCAUAGGCCAUGGAAACUAGGAGCACCAUCUCGCUGCCAGUGAAGAAAUGAACAAAGAAAAUCUGGGCCAGGCAGGCAUCAAAAGAAAUAGUCUUGCGCUCAACCAGAAAGUCUGUAAUCAUUUUAUGGGUA [U38C A135U],1.86
11,GUUAACGGUCAUAGGCCAUGGAAACUAGGAGCACCAUCUCGCUGCCAGUGAAGAAAAGAACAAAGAAAAUCUGGGCCAGGCAGGCAUCAAAAGAAAUAGUCUUGCGCUCAACCAGAAAGUCUGUAAUCAUUUUAAGGGUA [U38C U57A],1.48
12,GUUAACGGUCAUAGGCCAUGGAAACUAGGAGCACCAUCUCGCUGCCAGUGAAGAAACGAACAAAGAAAAUCUGGGCCAGGCAGGCAUCAAAAGAAAUAGUCUUGCGCUCAACCAGAAAGUCUGUAAUCAUUUUAAGGGUA [U38C U57C],0.83
13,GUUAACGGUCAUAGGCCAUGGAAACUAGGAGCACCAUCUCGCUGCCAGUGAAGAAAUGAACAAAGAAAAUCUGGGCCAGGCAGGCAUCAAAAGAAAUAGUCUUGCGCUCAACCAGAAAGUCUGUAAUCGUUUUAAGGGUA [U38C A129G],1.31
14,GUUAACGGUCAUAGGCCAUGGAAACUAGGAGCACCAUCUCGCUGCCAGUGAAGAAAUGAACAAAGAAAAUCUGGGCCAGGCAGGCAUCAAAAGAAAUAGUCUUGCGCUCAACCAGAAAGUCUGUAAUCUUUUUAAGGGUA [U38C A129U],1.21
15,GUUAACGGUCAUAGGCCAUGGAAACUAGGAGCACCAUCUCGCUGCCAGUGAAGAAAUGAACAAAGAAAAUCUGGGCCAGGCAGGCAUCAAAAGAAAUAGUUUUGCGCUCAACCAGAAAGUCUGUAAUCAUUUUAAGGGUA [U38C C101U],0.35
16,GUUAACGGUCAUAGGCCAUGGAAACUAGGAGCACCAUCUCGCUGCCAGUGAAGAAAUGAACAAAGAAAAUCUGGGCCAGGCAGGCAUCAUAAGAAAUAGUCUUGCGCUCAACCAGAAAGUCUGUAAUCAUUUUAAGGGUA [U38C A90U],2.23
17,GUUAACGGUCAUAGGCCAUGGAAACUAGGAGCACCAUCUCGCUGCCAGUGAAGAAAUGAACAAAGAAAAUCUGGGCCAGGCAGGCAUCAAGAGAAAUAGUCUUGCGCUCAACCAGAAAGUCUGUAAUCAUUUUAAGGGUA [U38C A91G],1.24
18,GUUAACGGUCAUAGGCCAUGGAAACUAGGAGCACCAUCUCGCUGCCAGUGAAGAAAUGAACAAAGAAAAUCUGGGCCAGGCAGGCAUCAAAAGCAAUAGUCUUGCGCUCAACCAGAAAGUCUGUAAUCAUUUUAAGGGUA [U38C A94C],1.41
19,GUUAACGGUCAUAGGCCAUGGAAACUAGGAGCACCAUCUCGCUGCCAGUGAAGAAAUGAACAAAGAAAAUCUGGGCCAGGCAGGCAUCAAAAGAAAUAGUCUUGCGCUCAACCAGAAAGUCUGUGAUCAUUUUAAGGGUA [U38C A125G],0.54
20,GUUAACGGUCAUAGGCCAUGGAAACUAGGAGCACCAUCUCGCAGCCAGUGAAGAAAUGAACAAAGAAAAUCUGGGCCAGGCAGGCAUCAAAAGAAAUAGUCUUGCGCUCAACCAGAAAGUCUGUAAUCAUUUUAAGGGUA [U38C U43A],2.13
